± gives the uncertainty stated by the source.
Key:
[1] = amyloid nucleation score (Sup35N fusion, yeast selection) (log enrichment); library NNK2; higher = more nucleation; inactive = no reads after selection
Outline: (§1)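 For the nucleation score, DiMSum gave the log enrichment of output over input reads, centred on the mode score of non-aggregating sequences. Psi-negative yeast expressing Sup35N fused to peptides of 20 random codons were induced with 100 μM copper sulfate for 24 hours and grown 7 days at 30°C on medium lacking adenine and uracil. Input and output plasmid inserts were Illumina-sequenced, and sequences with under 100 input reads were excluded.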

[2] = amyloid nucleation score (Sup35N fusion, yeast selection) (log enrichment); library NNK3; higher = more nucleation; inactive = no reads after selection
Outline: as §1

| Substance | amyloid nucleation score [1] | amyloid nucleation score [2] |
| --- | --- | --- |
| AACYCCISRMVLYFSFHGSC | inactive | – |
| AAHQMMCRFGPIPF | 1.22 ± 0.23 | – |
| AAIIISLSYMI | 2.23 ± 0.075 | – |
| AALCGLKFVRERKWRKSILS | 0.345 ± 0.65 | – |
| AARFELYSNWS | 2.05 ± 0.21 | – |
| AASWHPAYCIYGPGGRDKVG | 2.49 ± 0.12 | – |
| ACANGDADVEWLSDFCEKDE | 1.02 ± 0.35 | – |
| ACANYGRVVWSSWDW | 0.388 ± 0.39 | – |
| ACIYRQRDS | -0.332 ± 0.56 | – |
| ACLLIFLSTA | 2.31 ± 0.078 | – |
| ACMIEFRILRYRREMMSICS | 6.489 ± 0.039 | – |
| ACNLRAVYFT | -1.47 ± 0.39 | – |
| ACNNRMISGIRTTDCYIYRP | -0.261 ± 0.33 | – |
| ACNSTFNRIEVYARVMKDTS | 3.96 ± 0.094 | – |
| ACQAFTCW | 0.967 ± 0.26 | – |
| ACVNYYNSEATIVVRKGRMG | 4.19 ± 0.071 | – |
| ACWKRMN | inactive | – |
| ADDFINVNDTNKTVLCMCCG | -0.61 ± 0.78 | – |
| ADEEFRRFIVPSFLPGSCSS | -0.08 ± 0.39 | – |
| ADPVNRKFLHSWDF | 0.112 ± 0.29 | – |
| AEDMSQARA | 1.15 ± 0.15 | – |
| YIPGGFRNFGMV | – | inactive |
| YIPIYRFVMIS | – | inactive |
| YISIYFSFNRLIVNATSTTK | – | inactive |
| YITKLTGWTIE | – | inactive |
| YKCYMFANYGIPVVVLFVVL | – | inactive |
| YKETDLQIFRAIVVSSSYWD | – | inactive |

| Substance | amyloid nucleation score [1] | amyloid nucleation score [2] |
| --- | --- | --- |
| YKSRGMVYDYFGKMIYHLSG | – | 0.63 ± 0.13 |
| YKYGFAFCIIASAVSR | – | inactive |
| YLDRTSSMVTLVVSRGIF | – | inactive |
| YLFGRFPNGLVGRRGSGLLM | – | inactive |
| YLFPRVSLICERIWIENVGY | – | inactive |
| YLFRVTLNVALILMLSSRCE | – | inactive |
| YLGLRKIWIYL | – | inactive |
| YLICDFTFYVRGGGGMSQMT | – | 0.655 ± 0.28 |
| YLITHV | – | inactive |
| YLLDRLRVSDGYPLQSPWTT | – | inactive |
| YLLFIWSAYENKVGIGYITE | – | inactive |
| YLLVFCSNF | – | 2.29 ± 0.091 |
| YLMNVLFAYVD | – | inactive |
| YLMVNICMNDPWVYEMVSLY | – | 0.902 ± 0.2 |
| YLMVTVSALPSACCGVCVPW | – | 1.48 ± 0.1 |
| YLNDCDFGVVFEMESKLWTA | – | inactive |
| YLRKVSYNMHCRNWSWGDWS | – | inactive |
| YLRMLVDELKITHHH | – | inactive |
| YLRQIYFPCSTP | – | inactive |
| YLSNLYSPKRNWAAVL | – | inactive |
| YLSRLIIFLSLPD | – | inactive |
| YLWGGLRMYCRKLQHYFVLS | – | inactive |
| YLYGGVLGVSSDEGLADGKD | – | inactive |
| YMAAVTFFEVY | – | 0.012 ± 0.34 |
| YMACGHVAGPVH | – | inactive |
| YMDRFDK | – | inactive |
| YMFVLGYRMNCW | – | 1.01 ± 0.17 |

| Substance | amyloid nucleation score [1] | amyloid nucleation score [2] |
| --- | --- | --- |
| YMTCTR | – | inactive |
| YMVMFAPSFSWRVSVQDKGN | – | 3.08 ± 0.063 |
| YMYELVTSRFKRNQVMCVID | – | inactive |
| YNECYWK | – | inactive |
| YNFGVMVWTSDF | – | 2 ± 0.073 |
| YNKGRNY | – | inactive |
| YNMLCCRLSWRYIDRRQGRR | – | 3.17 ± 0.072 |
| YNMYQTHLSSYNYHQDATKN | – | 1.7 ± 0.095 |
| YNNSTFYTEPTLWD | – | inactive |
| YNRANYAKRVCTSSVNVETE | – | 0.294 ± 0.47 |
| YNSYSSYKIVKLY | – | inactive |
| YNYGKGRWHALLDISKVEVK | – | inactive |
| YNYKSLMHLIGYDNRIAESR | – | inactive |
| YPCLSIGFSCSVLRMNVYLW | – | 0.368 ± 0.21 |
| YPCYLLMGAVLSKPYLTSYV | – | inactive |
| YPGTASAG | – | inactive |
| YPLASYGLMCGFETDYPGAA | – | inactive |
| YPMRCTCMDGGNSWDLM | – | 0.177 ± 0.27 |
| YPPWWFYIRNWLISEEE | – | inactive |
| YPSDPLLILDLGIAAC | – | inactive |
| YPSGPHDCYCHTLYEFPFFL | – | inactive |
| YQGNLGPHT | – | inactive |
| YQIFYSEVSFLMAG | – | inactive |
| YQKFNKLRLRNLPHLYDFVL | – | inactive |
| YQNVMWLC | – | inactive |
| YRIESFIGY | – | inactive |
